The record followed here is paper PMC10397247.

Holding throughout (experiment): two-hybrid library CCmax;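 note: natural log of median RNA to DNA barcode read ratio; higher means stronger binding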
The target of test [1] is T1, 4H1639-AA.
T1 chain: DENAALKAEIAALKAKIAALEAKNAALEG

Test [2] has as its target T2, 4H1738-AA.
T2 chain: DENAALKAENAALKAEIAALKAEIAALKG
The note with it: mean of both orientations.

Test [3] addresses T3, 4H2219-AA.
T3 chain: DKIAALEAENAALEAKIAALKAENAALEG
The note with it: mean of both orientations.

The target in test [4] is T4, 4H249-AA.
T4 chain: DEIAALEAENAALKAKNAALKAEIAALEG
To be noted: mean of both orientations.

Test [5] has as its target T5, 4H2504-AA.
T5 chain: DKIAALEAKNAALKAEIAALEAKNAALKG
To be noted: mean of both orientations.

Test [6] concerns the target T6, 4H2592-AA.
T6 chain: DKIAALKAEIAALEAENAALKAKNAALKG
The note with it: mean of both orientations.

The target of test [7] is T7, 4H2611-AA.
T7 chain: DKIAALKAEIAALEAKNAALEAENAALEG
To be noted: mean of both orientations.

Test [8] addresses T8, 4H2774-AA.
T8 chain: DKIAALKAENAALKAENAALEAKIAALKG
The note with it: mean of both orientations.

Test [9] has as its target T9, 4H3001-AA.
T9 chain: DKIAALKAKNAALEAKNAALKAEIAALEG
The note with it: mean of both orientations.

The target of test [10] is T10, 4H3340-AA.
T10 chain: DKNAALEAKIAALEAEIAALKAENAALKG
The note with it: mean of both orientations.

The target in test [11] is T11, 4H3381-AA.
T11 chain: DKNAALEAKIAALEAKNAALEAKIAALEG
To be noted: mean of both orientations.

Test [12] concerns the target T12, 4H347-AA.
T12 chain: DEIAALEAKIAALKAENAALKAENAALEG
To be noted: mean of both orientations.

Test [13] addresses T13, 4H3493-AA.
T13 chain: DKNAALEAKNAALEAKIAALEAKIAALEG
The note with it: mean of both orientations.

Test [14] has as its target T14, 4H376-AA.
T14 chain: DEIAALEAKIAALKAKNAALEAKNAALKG
To be noted: mean of both orientations.

In test [15] the target is T15, 4H406-AA.
T15 chain: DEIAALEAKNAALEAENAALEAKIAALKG
To be noted: mean of both orientations.

Test [16] deals with T16, 4H688-AA.
T16 chain: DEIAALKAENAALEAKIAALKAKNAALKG

The target in test [17] is T17, 4H963-AA.
T17 chain: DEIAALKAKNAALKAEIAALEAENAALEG
To be noted: mean of both orientations.

Turning to DENAALKAEIAALKAKIAALEAKNAALEG [4H1639-AA], the interaction score in test [1] was 1.24; in test [2], -1.64; in [3], -1.88; in [4], -1.52; in test [5], -1.77; in test [6], -1.85. The interaction score in test [7] is -1.52; in test [8] it was -1.35; in test [9], -2.12; in test [10], -1.63; in [11], -1.7; in test [12] it was -1.41. The interaction score in test [13] was -1.73; in test [14], -1.37; in test [15] it was -1.63; in [16], -1.18; in test [17], -2.16.
